In a protein production outcome set (Wang et al. 2014):

Test: label from the status in PepcDB records
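Also: failed if final PepcDB status was selected cloned or expressed and not failed if soluble or beyond.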

Sequence | protein production
MGGNETRELPIINLSDKNLKQNTELWSFTRDSVREAMEHHGWFVAEYNNFPTGLHQSILEAAKELLDLPVEIKLKNENHKAGHGYITMMSDGQPVHEGLGIDQVNDVQQCRGFSRLMWPDDHDDNDRFCETVHAYAKMQAELEQLVIRMLFESYNVEKYTEKYIGGTRYLLRLLKYRRLPNGEPNRKFISHTDKSFISILHQNHITGLMLKSEKEDVWYHFTPSPTRFVVIAGDAIMAWSNDRIKACYHKVEMESVEMRYSLGFFSFQEGMISTPEEMVDKDHPLAYNPFHHDGLLEYYETLEVHLKAHRTMTKAYCGIP | failed
MFLKRIELQREKVLSFQEYPFSIPAIKHFQRLELKSRVTFFVGENGSGKSTLLEAIADKCEFNTAGGGRNNYYEVDASESALGDYIRLSWLPKVSNGFFLRAESFYHFASHVDEVDARHAYGGRSLHHQSHGEAFLSLFANRFNRKGIYLLDEPEAALSPRRQLSFLAILHDLVSSGDSQFIIATHSPILLGYPHATILSFDHGTIEETTYEQTEHYQLTRYFLENRERMLRELLGELEHHHHHH | failed
MDGIFAGIICNQANRCLTWTSQQLFSEKISGAEGTKLDDEFLDMERKIDVTNKVVAEILSKTTEYLQPNPAYRAKLGMLNTVSKIRGQVKTTGYPQTEGLLGDCMLKYGKELGEDSTFGNALIEVGESMKLMAEVKDSLDINVKQTFIDPLQLLQDKDLKEIGHHLKKLEGRRLDYDYKKKRVGKIPDEEVRQAVEKFEESKELAERSMFNFLENDVEQVSQLAVFIEAALDYHRQSTEILQELQSKLQMRISAASSVPRREYKPRPVKRSSSELNGVSTTSVVKTTGSNIPMDQPCCRGLYDFEPENQGELGFKEGDIITLTNQIDENWYEGMIHGESGFFPINYVEVIVPLPQ | not failed
SLSSTQSVNSVLAPGNLRKVHHIALNVQDMQASRYFYGTILGLHELTDDEVPATLTELVASGKVANFITPDGTILDLFGEPELSPPDPNPEKTFTRAYHLAFDIDPQLFDRAVTVIGENKIAIAHGPVTRPTGRGVYFYDPDGFMIEIRCDPEAEG | not failed
MKIGIMSDTHDHLPNIRKAIEIFNDENVETVIHCGDFVSLFVIKEFENLNANIIATYGNNDGERCKLKEWLKDINEENIIDDFISVEIDDLKFFITHGHHQSVLEMAIKSGLYDVVIYGHTHERVFEEVDDVLVINPGECCGYLTGIPTIGILDTEKKEYREIVLE | not failed
MKKTLPKTEAPSSVGNGSDSPIEFDAIIRQVPDMDAAYVEIPFDVKTVYGKGRVRVNATFDGYPYTGYIVRMGLPCHILGLRQDIRRAIGKQPGDSVYVTLLPL | not failed
MMFGRFSDRAQKMIYYAQEEAQNFKHGYVGTEHILLGILRDENGKAQSLLANMGVTIEKVRRLIEEYEGFGDSDLYKEEPPLTPRTKRLLEISLLEARNLNHNYINPEHVLLALIRESEGVAFTILGNLGVDFERLRKEILDSLS | failed
MEKGVGFEKDMKTVSDGFVGGFFPVSTTKIAWKSRKRSALLNLDKAPEAVTEVTPEKNEITAMDTEKVGEPMTTTPLLSEKRKALFEPLEPITNLNGKRPTAADSLLPPPDFETANYPKGWLIGKKRKLVNVDVVESMRRIAVQEMNRKDREIDGLNEQLEEDSRCLEHLQLQLLQERSKRTEIERENTMLKEQVDMLVNMIQEDDEEGAEEP | failed
MQVPKVTLNNGVEMPILGYGVFQIPPEKTEECVYEAIKVGYRLIDTAASYMNEEGVGRAIKRAIDEGIVRREELFVTTKLWVSDVGYESTKKAFEKSLKKLQLEYIDLYLIHQPFGDVHCAWKAMEEMYKDGLVRAIGVSNFYPDRLMDLMVHHEIVPAVNQIEIHPFYQRQEEIEFMRNYNIQPEAWGPFAEGRKNIFQNGVLRSIAEKYGKTVAQVILRWLTQKGIVAIPKTVRRERMKENISIFDFELTQEDMEKIATLDEGQSAFFSHRDPEVVKWICSLKR | not failed
MSNNMQTVRESYEAFHRRDLPGVLAALAPDVRWTHPDGMSPYGLGGTKHGHDEVIAFIRHVPTHIAEMRLAPDEFIESGERIVVLGTRRVTAVNGRSATLKFVHVWRFENGRAVTFEDHFDTAEMIRLITA | not failed
MMMTRSWAAGGSAVLLALLLGGTITSAHAQSADLVLCDRIAADPADPDKPADVKGVTEIAPGDVSTAIKYCRVASAGSRRAMYGLGRAYAAGGQTAEALAAYRKAADKGSSAAMVELGVAYATGVGLPKDDAKARQLLERAAAAGNPRGISNLAALGGGASSDPVKTRALLAKGAESNAEAQYQLGMMMADGIGGPKDDAGARALFEKAAGQGHPGALMQMGAFAQAGRGGPKDSDAAKAYYEKAAALGNADAKAALKRSDCPYVLKDKRGNMVTNLCF | failed
MTVDPASHITIPEADLARLRHCNHHDPHGFYGWHETEAGSVIRTRQVGATQVNLLIDDTSHVMTPIGDDIFAIDLGHRERADYRLEVTWPDQEPQVKADPYYFLPTVG | not failed
MESYDIEGSNQNYVYINVNRWTSTEYPQNTFVYEVLRTPIGSSLESGPEIVKVGVRSTKVASKDITVTLDIDNCASIGEFSSFPDGVKVTLDKKELVIPAGSMLSSDSVTIEIEDGKWSEFVNTSYLLPLKVTSVSNAALSETHSSAYLAVSTSFTNCVPGATSVEGTLISDRSAWTATNNGVDVGTTLFDGNTRTYPSQDASSTVIVNLNGVYQNITGIRLQYYSRNYSLSSAAVYTSETGGEDYEYQGNVTFSRATPQYIRFYGAVSARYVKLELLPYSSGYGIVLSEFDMYQNELEHHHHHH | not failed
MEALGPGGDRASPASSTSSLDLWHLSMRADSAYSSFSAASGGPEPRTQSPGTDLLPYLDWDYVRVVWGGPGPAPPDAALCTSPRPRPAVAARSGPQPTEVPGTPGPLNRQATPLLYALAAEAEAAAQAAEPPSPPASRAAYRQRLQGAQRRVLRETSFQRKELRMSLPARLRPTVPARPPATHPRSASLSHPGGEGEPARSRAPAPGTAGRGPLANQQRKWCFSEPGKLDRVGRGGGPARECLGEACSSSGLPGPEPLEFQHPALAKFEDHEVGWLPETQPQGSMNLDSGSLKLGDAFRPASRSRSASGEVLGSWGGSGGTIPIVQAVPQGAETPRPLFQTKLSRFLPQKEAAVMYPAELPQSSPADSEQRVSETCIVPAWLPSLPDEVFLEEAPLVRMRSPPDPHASQGPPASVHASDQPYGTGLGQRTGQVTVPTEYPLHECPGTAGADDCWQGVNGSVGISRPTSHTPTGTANDNIPTIDPTGLTTNPPTAAESDLLKPVPADALGLSGNDTPGPSHNTALARGTGQPGSRPTWPSQCLEELVQELARLDPSLCDPLASQPSPEPPLGLLDGLIPLAEVRAAMRPACGEAGEEAASTFEPGSYQFSFTQLLPAPREETRLENPATHPVLDQPCGQGLPAPNNSIQGKKVELAARLQKMLQDLHTEQERLQGEAQAWARRQAALEAAVRQACAPQELERFSRFMADLERVLGLLLLLGSRLARVRRALARAASDSDPDEQASLLQRLRLLQRQEEDAKELKEHVARRERAVREVLVRALPVEELRVYCALLAGKAAVLAQQRNLDERIRLLQDQLDAIRDDLGHHAPSPSPARPPGTCPPVQPPFPLLLT | failed
MGAAAAPEVNMELVGHFGGTTDAVDVAGNYAYVGQGQDFLILDITNPSSPVLVSKIMTEGFVRDIKVSRNYAYVADDDNGLVIVDISNPSSPTLKGSYNIPGYTYCITVSGNYAYVADNDGLVIVDISNPSDPILKGRYAGPTGDVAVYGNYAYVADWGNGLMIVDISNPSSPVLKGSYDTAGDIYGVSISGNYAYVADGDTGLVIVDISNPSSPTLKGNYNTAGIACDVSVLGNYAYVADNDNGLVIVDISDPSSPVLKGNGSTTGYAHGIEVSGNYAYVANSNTGLVIVDISNPSSPTLKGSCDTIVRAKSIAVSGNYAYIADWDNGLVIVDISNPSSPFLKGSCDTPRSAQGVAVSGNYAYVADDDGLVIVDISNPSFPILNKSYNTGGWAQGITVSGNYAYVIDMANGIFIVDISNPSSPILEGMYDTSPIIIENYDYTGSIWSVSVSGNYAYVADEGNGLLIVDISNPSSPILKGSYDTAGLAYDVAVSGNYAYVADSKNGLAIIDISNPSSPILVGNYNTSGYAECVSISGNYAYVAVDDSLVVVDISNPSSPILKGLYAGSAGDIAVSGNYVYASEGVNGLVILKANPESAFTVADFSSNITSGYAPLSIQFNDHSQNATSWNWDFGDGYNSTNQNPIHTYSSAGTYTVNLTVINENRTASKVAKIFVLNTSLEHHHHHH | failed
MKIDILDKGFVELVDVMGNDLSAVRAARVSFDMGLKDEERDRHLIEYLMKHGHETPFEHIVFTFHVKAPIFVARQWFRHRIASYNELSGRYSKLSYEFYIPSPERLEGYKTTIPPERVTEKISEIVDKAYRTYLELIESGVPREVARIVLPLNLYTRFFWTVNARSLMNFLNLRADSHAQWEIQQYALAIARIFKEKCPWTFEAFLKYAYKGDILKEVQV | not failed
SIDAICAYFYAGYDVPRVLNEGGWFFLENILLIKSVGGRKPPLTDNKLRIKFLQTTKMTHVPNREPSSLFRFAAFSMIENKTINSSTVHDAYGIVVRVGNITRPDFVPQASENTILSQFLEFEIKNSWGKSLICVASGYTCELFVQLWRELGLELGYHWNFGMNPTICVLRFWNVDDHEGRQCLISHNGASKITFNQSYPEINMDRVRTQFLQRMQTPELGEVVDEN | not failed
MTGDYALCGWRVRIDRPSTFAPPWIGEDRPVDITIRHAAFSPPSPPLLFESPLVGVFAEGAIVLRINPGLGFLIEGGARITVDATAQTGEAEIATFLFGQCLGFLALQRRQPALRAASVVRDGRAVVLAGAAGVGKSTLAAALMAKGWGLLADEVTLIDPRTLLIPPAFGRIKLWKDSATHLGLEAAALPAVRPGWNKGHAPYGGHLAPAPVPLAAIILIEQAYTAKTAGIDKIAPREALAALNDQLHGGTFAGALAARPACFDLLTTLVGGVPVFQLSRPWHGMTLAPLVELLTAEMARLEHHHHHH | failed
MLRYHMQGFSGYGVQYSPFFDNRLAVAAGSNFGLVGNGKLFILEIDRSGRIVEVNSFLTQDCLFDLAWNESHENQVLVAQGDGTLRLFDTTFKEFPIAIFKEHEREVFSCNWNLVNRQNFLSSSWDGSIKIWSPLRKQSLMTLTPRPLEITKMVDPLNAIILKKKSFTGISKNRNCVYQAQFSPHDQNLVLSCSGNSYASLFDIRLPSGKNQNNFLVHSGLEALTCDFNKYRPYVVATGGVDNAIRIWDIRMLNKNESATIKRTVPGQLHNSSCINEIPNAHGLAIRKVTWSPHHSNILMSASYDMTCRIWRDLSNDGAKETYKTNSTDATKGSIFNFTQHSEFVFGADWSLWGKPGYVASTAWDGNLFVWNGLG | failed
MVFNLVVNIIGIVVFIAIAYLFSKQKHAINWRSVGVMLVLEVLLAWFLTGSQVGVDAVKAAADGFTWLVNVSYDGIAFALASWVNVKSMDFVTSSLLPILLIVPLFDILTYIGVLPWIIKWVGRGLAYITGQPKFESFFVVEMMFLGNTEALAVSQLQLKQMKAQRNLTIAMMSMSCVTASILGAYIKMMPGQFILTAVPMNVLNAAIIAAILNPVEVKPEEDTIAKISGSAAVEETTATTETSGSEELANEQVKEAKPAREPFFSFLGDSILGAGRLILIIAANVIAFVALAKLIDKLLGLINSNLSLENIFGVVMFPFAWLLGFNPSDAFQMASYMGTKLVTNEFVVMGEVSSKVNDFAPHFRAVLTVFLTSFANFSTIGMIIGAFKGIVDREKNDLISRNVGYMLLSGILVSLLSAGVVGLFVW | failed
TIDLDYQRLALESLRFGHQKILEKIAKEKPKTNASNEDEDNLNASMIVTDTSTGKILALVGGIDYKKSAFNRATQAKRQFGSAIKPFVYQIAFDNGYSTTSKIPDTARNFENGNYSKNSEQNHAWHPSNYSRKFLGLVTLQEALSHSLNLATINLSDQLGFEKIYQSLSDMGFKNLPKDLSIVLGSFAISPIDAAEKYSLFSNYGTMLKPMLIESITNQQNDVKTFTPMETKKITSKEQAFLTLSVLMDAVENGTGSLARIKGLEIAGKTGTSNNNIDAWFIGFTPTLQSVIWFGRDDNTPISKGATGGVVSAPVYSYFMRNILAIEPSLKR | failed
